Data: publication PMC4519330, “An Internally Translated MAVS Variant Exposes Its Amino-terminal TRAF-Binding Motifs to Deregulate Interferon Induction” (PLoS Pathogens, 2015)

Biological target: the molecule itself
Test: co-IP; 293T cells co-transfected; lysates in NP40 buffer (50 mM Tris-HCl pH 7.4, 150 mM NaCl, 5 mM EDTA, 1% NP40) precipitated with anti-Flag agarose at 4°C for 4-6 hours; immunoblot

B1: Flag-tagged MAVS50 (natural protein, human, UniProt Q7Z434 142-540, looked up)
chain: MPVQETQAPESPGENSEQALQTLSPRAIPRNPDGGPLESSSDLAALSPLTSSGHQEQDTELGSTHTAGATSSLTPSRGPVSPSVSFQPLARSTPRASRLPGPTGSVVSTGTSFSSSSPGLASAGAAEGKQGAESDQAEPIICSSGAEAPANSLPSKVPTTLMPVNTVALKVPANPASVSTVPSKLPTSSKPPGAVPSNALTNPAPSKLPINSTRAGMVPSKVPTSMVLTKVSASTVPTDGSSRNEETPAAPTPAGATGGSSAWLDSSSENRGLGSELSKPGVLASQVDSPFSGCFEDLAISASTSLGMGPCHGPEENEYKSEGTFGIHVAENPSIQLLEGNPGPPADPDGGPRPQADRKFQEREVPCHRPSPGALWLQVAVTGVLVVTLLVVLYRRRLH
notes: MAVS (mitochondrion antiviral signaling adaptor), variant of ~50 kDa from internal translation initiation at codon 142; also called MAVS50-Flag; Flag-MAVS50
B1: binds.
